Results reported in patent US20080095767A1 (PEPTECH, published 2008).

How the values were obtained:
[1] = target: T1, rat MOG (myelin-oligodendrocyte glycoprotein) (rat, UniProt Q63345 28-245); assay: Western blot on rat spinal cord lysate
T1 construct: mature; Endogenous protein in cleared rat spinal cord lysate, run on SDS-PAGE and blotted; It was identified only by its size
T1 sequence (looked up): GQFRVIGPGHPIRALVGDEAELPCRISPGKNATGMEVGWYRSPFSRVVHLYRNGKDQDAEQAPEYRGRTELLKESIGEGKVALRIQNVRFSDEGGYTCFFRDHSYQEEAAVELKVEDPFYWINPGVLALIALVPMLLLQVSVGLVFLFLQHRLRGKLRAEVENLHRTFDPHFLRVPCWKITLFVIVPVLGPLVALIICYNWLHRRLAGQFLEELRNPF
Procedure: The ability of AB138 to retain binding to the antigen of M26, rat MOG (myelin-oligodendrocyte glycoprotein), was investigated by Western Blot. 130 mg of rat spinal cord (IMVS, Australia) was homogenized in 1.8 ml CelLytic M Cell Lysis Reagent (SIGMA, C2978) and incubated for 30 minutes at 4° C. Further homogenization was performed by drawing the lysate through a 27 g ½ needle several times followed by centrifugation at 4° C. and 13000 g for 30 minutes. The pellet and supernatant was diluted into SDS-PAGE sample buffer (125 mM Tris-HCl pH 6.8, 5% SDS, 0.25% bromophenol blue, 25% glycerol). Along with this 200 μl CHOK1SV cells at 1×10⁶ viable cells per ml were spun down at 13000×g at 4° C. for 1 minute and resuspended in 200 μl CelLytic M Cell Lysis Reagent (SIGMA). Following centrifugation at 4° C. and 13000×g for 30 minutes the supernatant was mixed with the appropriate amount of SDS-PAGE sample buffer. All samples, along with a sample of molecular weight markers, were run on a 4-20% Novex pre-cast gel (Invitrogen, Australia) for 2 hours at 120V. Proteins were then transferred to PVDF (BioRad, Australia) using a western blot apparatus in 1×Tris-Glycine Buffer with 20% methanol (BioRad, Cat 161+-0771) at 4° C. at 250 mA for 2 hours. […] Following washing, bound antibody was detected using the ECL Western Blotting Analysis System, (Amersham Biosciences Cat: RPN2109). […]

[2] = target: T2, human TNF-α (Peprotech Cat No: 300-01A) (human, UniProt P01375 77-233); assay: ELISA, TNF-α coated on the plate
T2 construct: Bought recombinant protein; also called tumour necrosis factor-alpha
Procedure: TNF-α (Peprotech Cat No: 300-01A) was diluted to 1 μg/mL in carbonate coating buffer ([…] pH 9.6). 100 μl of this solution was added to each well of a 96 well plate and incubated at 4° C. overnight in a humidified container. The plate was then washed three times with wash buffer (0.01M PBS pH 7.2, 0.05% Tween-20) and then three times with 0.01M PBS pH 7.2. The wells were then blocked by adding 200 μL blocking buffer (1% w/v BSA in 0.01M PBS pH 7.2) to each well and incubating the plate at 25° C., in a humidified container, for 1 hour. The antibody was diluted in antibody diluent (1% w/v BSA, 0.05% Tween-20 in 0.01M PBS pH 7.2) sufficient to generate a titration curve covering the ranges 6.00 μg/mL to 0.0578 ng/mL. The wells were incubated with the antibody for 1 hour at 25° C. The plate was then washed as previously described. 100 μL of Anti-IgG H+L antibody HRP conjugate (Zymed, Cat No: 81-71200) at 1:2000 in antibody diluent was used to detect bound AB197 and AB103. 100 μL of Anti-murine immunoglobulin antibody HRP conjugate (Dako, Cat No: P0260) at 1:2000 in antibody diluent was used to detect bound AB164. Wells with antibody diluent only were used to measure the background absorbance. After incubation at 25° C., in a humidified container, for 1 hour the plate was washed again as previously described. 100 μL TMB substrate solution (Zymed, Cat No: 00-2023) was added to each well and the colour allowed to develop for 4 min. 100 μL of 1M HCl was added to terminate the colour development reaction and absorbance was determined at 450 nm (ref. 620 nm)

[3] = target: T2, human TNF-α (Peprotech Cat No: 300-01A); assay: cell-based or functional assay

T2 sequence (P01375 77-233 limits assumed): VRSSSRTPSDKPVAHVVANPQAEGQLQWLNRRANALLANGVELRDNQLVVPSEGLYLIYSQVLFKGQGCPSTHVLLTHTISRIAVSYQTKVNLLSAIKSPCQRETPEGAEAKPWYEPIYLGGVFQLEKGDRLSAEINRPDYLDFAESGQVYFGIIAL

B1: AB138 (MOG specific marmoset derived variable region-human constant region chimera) (antibody, human IgG1, kappa, V domains shown)
VH: QVQLVQSGAEVKKPGASVKVSCKASGYTFTSYAISWARQPPGQGLEWMGAFDPEYGSTTYAQKFQGRVTMTADTSTSTAYMELSSLRPEDTAVYYCARDVNFGNYFDYWGQGTLVTVSS
VL: ELVMTQSPATLSLSPGERATVSCRAGQSVSYYLAWYQQKPGQAPRLLIYGASTRATGIPARFSGSRSGTDFTLTISSLEPEDFAVYYCQQYSSWPPTFGQGTKLEIKR
notes: Chimeric antibody with the variable regions of the marmoset anti-MOG antibody (M26) and human IgG1/kappa constant regions
B1: binds [1].

B2: murine monoclonal antibody AB164 (antibody, V domains shown)
VH: QVQLQQSGAELVRPGTSVKVSCKASGYAFTNYLIEWVKQRPGQGLEWIGVINPGSGSTNYNEKFKDKATLTADKSSSTAYMQLSSLTSDDSAVYFCVRDYGYDGMDYWGQGTSVTVS
VL: DIVLTQSPASLAVSLGQRATISCRASKSVSTSGYSYMHWYQQKPGQPPKLLIYLASNLESGVPARFSGSGSGTDFTLNIHPVEEEDAATYYCQHSRELPLTFGAGTKLELKR
notes: Fully murine antibody from a hybridoma
B2 was tested, and the EC50 [2] was 0.45 µg/mL and the “EC-50 (µg/ml), neutralisation of TNF-α-induced L-929 cell cytotoxicity” value (from here on “EC-50 (µg/ml), neutralisation”) [3] was 0.1 µg/mL.

B3: AB103 (anti-TNFα murine variable region-human constant region chimera) (antibody, V domains shown)
VH: QVQLQQSGAELVRPGTSVKVSCKASGYAFTNYLIEWVKQRPGQGLEWIGVINPGSGSTNYNEKFKDKATLTADKSSSTAYMQLSSLTSDDSAVYFCVRDYGYDGMDYWGQGTSVTVSS
VL: DIVLTQSPASLAVSLGQRATISCRASKSVSTSGYSYMHWYQQKPGQPPKLLIYLASNLESGVPARFSGSGSGTDFTLNIHPVEEEDAATYYCQHSRELPLTFGAGTKLELKR
For B3, the EC50 [2] was 0.19 µg/mL and the “EC-50 (µg/ml), neutralisation” value [3] was 0.1 µg/mL.

B4: engineered monoclonal antibody AB197 (antibody, V domains shown)
VH: QVQLVQSGAELKKPGASVKVSCKASGYAFTNYLIEWVRQPPGQGLEWIGVINPGSGSTNYNEKFKDKATLTADKSSSTAYMELSSLRPEDTAVYYCARDYGYDGMDYWGQGTLVTVS
VL: ELVMTQSPATLSLSPGERATVSCRASKSVSTSGYSYMHWYQQKPGQAPRLLIYLASNLESGVPARFSGSRSGTDFTLTISSLEPEDFAVYYCQHSRELPLTFGQGTKLEIKR
B4 was tested, and the EC50 [2] was 0.68 µg/mL and the “EC-50 (µg/ml), neutralisation” value [3] was 0.41 µg/mL.
